{
  "source": "patent US20250034222",
  "proteins": {"B1": {"name": "WT IL-38 (residues 3-152, initiator methionine, C-terminal His6 tag) (protein)", "chain": "MSLPMARYYIIKYADQKALYTRDGQLLVGDPVADNCCAEKICILPNRGLARTKVPIFLGIQGGSRCLACVETEEGPSLQLEDVNIEELYKGGEEATRFTFFQSSSGSAFRLEAAAWPGWFLCGPAEPQQPVQLTKESEPSARTKFYFEQSW"}},
  "experiment": "SEC after Ni-NTA purification, area under monomer and dimer peaks",
  "data": [
    {"protein": "B1", "values": [
      {"measurement": "% monomer upon purification", "result": "WT IL-38 forms ˜20% dimer upon purification, ˜80% monomer"}
    ]}
  ]
}
